The text below walks through data of patent US20080247944A1 (published 2008).

The target of assay [1] is T1, IRTA-2-Fc antigen (fusion protein composed of the extracellular domain of the IRTA-2 linked to the Fc portion … (human, UniProt Q96RD9 16-851)).
T1 construct: not shown: Fc portion of human IgG1
T1 chain: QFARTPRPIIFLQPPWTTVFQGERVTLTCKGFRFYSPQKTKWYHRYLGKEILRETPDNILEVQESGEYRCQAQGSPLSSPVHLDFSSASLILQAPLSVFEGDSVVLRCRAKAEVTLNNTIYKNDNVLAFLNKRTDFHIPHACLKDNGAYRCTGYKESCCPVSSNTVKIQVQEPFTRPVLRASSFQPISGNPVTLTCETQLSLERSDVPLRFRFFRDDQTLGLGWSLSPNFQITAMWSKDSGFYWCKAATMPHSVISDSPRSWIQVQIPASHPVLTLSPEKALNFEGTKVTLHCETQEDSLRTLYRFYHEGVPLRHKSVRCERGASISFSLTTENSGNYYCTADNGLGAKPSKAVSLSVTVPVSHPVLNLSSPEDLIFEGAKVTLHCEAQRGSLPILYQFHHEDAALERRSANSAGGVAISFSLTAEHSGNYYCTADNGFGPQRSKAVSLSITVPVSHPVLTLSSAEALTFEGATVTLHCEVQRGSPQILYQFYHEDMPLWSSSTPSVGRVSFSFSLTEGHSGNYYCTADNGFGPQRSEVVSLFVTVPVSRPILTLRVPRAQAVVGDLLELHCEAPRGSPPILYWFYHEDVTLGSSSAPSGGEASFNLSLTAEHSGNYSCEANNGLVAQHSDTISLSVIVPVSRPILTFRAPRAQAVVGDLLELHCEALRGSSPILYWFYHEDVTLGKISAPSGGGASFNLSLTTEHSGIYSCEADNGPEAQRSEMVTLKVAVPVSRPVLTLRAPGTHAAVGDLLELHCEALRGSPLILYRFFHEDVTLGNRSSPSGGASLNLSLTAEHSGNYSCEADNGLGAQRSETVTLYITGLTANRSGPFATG
Description: Biacore SPR, antibody captured by anti-human IgG on CM5 chip, IRTA-2-Fc flowed at 50-400 nM, 1:1 Langmuir fit. The protocol:
Anti-IRTA-2 antibodies were characterized for affinities and binding kinetics by Biacore analysis (Biacore AB, Uppsala, Sweden). Purified anti-IRTA-2 monoclonal antibodies were captured by anti-human IgG antibody covalently linked to a CM5 chip (carboxy methyl dextran coated chip) via primary amines, using standard amine coupling chemistry and kit provided by Biacore. Binding was measured by flowing the IRTA-2-Fc antigen (a fusion protein composed of the extracellular domain of the IRTA-2 linked to the Fc portion of human IgG1) in HBS EP buffer (provided by Biacore AB) at concentrations of 400, 300, 200, 100, and 50 nM at a flow rate of 12 μl/min. The antigen-antibody association kinetics was followed for either 20 minutes (for 8A1) or 5 minutes (for 9D12) and the dissociation kinetics was followed for ether 10 minutes (for 8A1) or 5 minutes (for 9D12). The association and dissociation curves were fit to a 1:1 Langmuir binding model using BIAevaluation software (Biacore AB).

In assay [2] the target is T2, IRTA-3, full length transmembrane form with N-terminal myc tag, on transfected CHO cells (human, UniProt Q96P31 18-734).
T2 construct: also called CHO cells transfected with IRTA-3; human IRTA-3; not shown: myc tag at the N-terminus
T2 sequence: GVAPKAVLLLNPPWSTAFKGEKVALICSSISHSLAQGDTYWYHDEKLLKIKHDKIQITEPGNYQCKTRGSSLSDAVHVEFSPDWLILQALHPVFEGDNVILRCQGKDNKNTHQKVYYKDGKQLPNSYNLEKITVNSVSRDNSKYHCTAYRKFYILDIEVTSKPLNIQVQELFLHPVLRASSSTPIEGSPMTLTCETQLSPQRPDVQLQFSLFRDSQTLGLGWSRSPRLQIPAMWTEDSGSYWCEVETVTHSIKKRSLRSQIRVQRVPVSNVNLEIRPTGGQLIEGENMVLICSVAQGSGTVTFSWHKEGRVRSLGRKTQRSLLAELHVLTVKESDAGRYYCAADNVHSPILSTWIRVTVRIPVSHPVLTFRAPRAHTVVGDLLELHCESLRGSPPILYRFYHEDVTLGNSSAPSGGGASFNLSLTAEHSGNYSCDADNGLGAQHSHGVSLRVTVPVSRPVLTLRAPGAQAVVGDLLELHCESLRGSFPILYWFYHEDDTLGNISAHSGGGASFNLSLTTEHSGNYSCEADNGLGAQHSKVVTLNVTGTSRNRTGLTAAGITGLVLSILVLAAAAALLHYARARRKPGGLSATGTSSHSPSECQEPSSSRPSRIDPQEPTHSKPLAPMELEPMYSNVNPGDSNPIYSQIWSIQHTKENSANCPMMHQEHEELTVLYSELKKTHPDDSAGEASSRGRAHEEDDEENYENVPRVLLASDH
Description: flow cytometry on CHO cells transfected with myc-tagged IRTA-3; PE-labeled anti-human IgG. The text has this:
(§1) Chinese hamster ovary (CHO) cell lines that express either the IRTA-2, IRTA-3 or IRTA-4 protein at the cell surface were developed and used to determine the specificity of the IRTA-2 monoclonal antibodies by flow cytometry. CHO cells were transfected with expression plasmids containing full length cDNA encoding transmembrane forms of IRTA-2, IRTA-3, or IRTA-4. In addition, the transfected proteins contained a myc tag at the N-terminus for detection by anti-myc antibody. Binding of the two anti-IRTA-2 monoclonal antibodies was assessed by incubating the transfected cells with each of the IRTA-2 Abs at a concentration of 10 μg/ml. The cells were washed and binding was detected with a phycoerythrin-labeled anti-human IgG Ab. A murine anti-myc Ab followed by labeled anti-murine IgG was used as the positive control. Secondary antibody alone was used as a negative control. The results are depicted in FIGS. 7A-C. The IRTA-2 monoclonal antibodies 9D12 and 8A1 bound to the CHO line transfected with IRTA-2 but not to CHO lines expressing IRTA-3 or -4, as measured by the mean fluorescent intensity (MFI) of staining.
On the technique in general: Flow cytometry measures light scatter and fluorescence of single cells or particles in a stream.

In assay [3] the target is T3, IRTA-4, full length transmembrane form with N-terminal myc tag, on transfected CHO cells (human, UniProt Q96LA5 20-508).
T3 construct: also called CHO cells transfected with IRTA-4; human IRTA-4; not shown: myc tag at the N-terminus
T3 sequence: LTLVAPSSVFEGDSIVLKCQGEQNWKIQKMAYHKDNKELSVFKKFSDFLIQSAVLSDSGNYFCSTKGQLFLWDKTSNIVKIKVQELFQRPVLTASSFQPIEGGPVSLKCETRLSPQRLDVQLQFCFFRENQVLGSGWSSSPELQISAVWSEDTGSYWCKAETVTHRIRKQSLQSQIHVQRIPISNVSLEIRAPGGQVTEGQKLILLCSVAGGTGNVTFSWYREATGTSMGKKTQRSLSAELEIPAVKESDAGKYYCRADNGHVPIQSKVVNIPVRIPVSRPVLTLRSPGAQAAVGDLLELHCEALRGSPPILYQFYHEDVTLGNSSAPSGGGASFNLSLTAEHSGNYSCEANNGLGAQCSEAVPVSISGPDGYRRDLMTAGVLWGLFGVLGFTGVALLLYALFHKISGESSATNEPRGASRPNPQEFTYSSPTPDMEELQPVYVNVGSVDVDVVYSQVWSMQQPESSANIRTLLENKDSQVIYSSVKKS
Description: flow cytometry on CHO cells transfected with myc-tagged IRTA-4; PE-labeled anti-human IgG.
Excerpt: as §1

Assay [4] concerns the target T4, IRTA-2, full length transmembrane form with N-terminal myc tag, on transfected CHO cells (human, UniProt Q96RD9 16-977).
T4 construct: also called CHO cells transfected with IRTA-2; human IRTA-2; not shown: myc tag at the N-terminus
T4 chain: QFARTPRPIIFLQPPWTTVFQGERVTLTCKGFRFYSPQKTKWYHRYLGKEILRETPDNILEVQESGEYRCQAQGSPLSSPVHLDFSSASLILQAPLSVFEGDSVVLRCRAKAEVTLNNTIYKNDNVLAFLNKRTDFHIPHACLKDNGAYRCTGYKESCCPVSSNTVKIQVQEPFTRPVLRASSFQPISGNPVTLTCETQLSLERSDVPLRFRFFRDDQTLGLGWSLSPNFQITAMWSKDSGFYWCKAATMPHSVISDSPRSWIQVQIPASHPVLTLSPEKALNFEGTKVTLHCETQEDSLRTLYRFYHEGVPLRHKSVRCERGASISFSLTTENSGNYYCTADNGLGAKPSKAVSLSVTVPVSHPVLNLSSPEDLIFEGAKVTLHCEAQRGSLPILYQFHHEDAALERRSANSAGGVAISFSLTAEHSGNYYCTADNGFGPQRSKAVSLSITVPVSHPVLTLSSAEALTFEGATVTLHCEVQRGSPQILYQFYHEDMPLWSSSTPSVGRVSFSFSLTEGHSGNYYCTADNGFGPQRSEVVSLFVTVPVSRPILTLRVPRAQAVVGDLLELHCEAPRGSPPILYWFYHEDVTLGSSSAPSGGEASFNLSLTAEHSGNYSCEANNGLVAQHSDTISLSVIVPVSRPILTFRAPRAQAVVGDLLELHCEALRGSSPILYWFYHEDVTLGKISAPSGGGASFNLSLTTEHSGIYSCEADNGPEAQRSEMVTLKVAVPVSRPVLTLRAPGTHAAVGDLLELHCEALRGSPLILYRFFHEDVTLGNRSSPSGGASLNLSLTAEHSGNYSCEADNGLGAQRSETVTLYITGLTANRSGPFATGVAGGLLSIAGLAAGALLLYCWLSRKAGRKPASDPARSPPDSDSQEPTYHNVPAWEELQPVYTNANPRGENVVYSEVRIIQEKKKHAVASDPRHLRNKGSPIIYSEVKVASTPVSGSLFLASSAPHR
Description: flow cytometry on CHO cells transfected with myc-tagged IRTA-2; antibody at 10 µg/ml; PE-labeled anti-human IgG.
Excerpt: as §1

B1: 8A1 human monoclonal antibody (antibody, V domains shown)
VH: QMQLVQSGAEVKKPGASVKVSCKASGYTFISYDINWVRQATGQGLEWMGWMHPNSGNTGYAQKFQGRVTMTRNTSISTAYMELSSLRSEDTAVYYCARGRGITMVRGGIIYYGMDVWGQGTTVTVSS
VL: AIQLTQSPSSLSASVGDRVTITCRASQGISSALAWYQQKPGKAPKLLIYDASSLESGVPSRFSGSGSGTDFTLTISSLQPEDFATYYCQQFNSYPHTFGQGTKLEIK
notes: Purified from a hybridoma of a KM Mouse; Human IgG (captured and detected with anti-human IgG) with a kappa light chain (VK L18); also called anti-IRTA-2 HuMAb 8A1
One may read the Kd as the constant that tells how readily two partners part at equilibrium. The low end stands for a tighter complex, the high end for a looser complex. The term koff denotes a measure of how fast the partners let go of each other. In general, kon refers to a measure of how fast the partners come together. In assay [1], B1 registered a Kd of 20 nM, a koff of 0.00011 s⁻¹ and a kon of 5800 M⁻¹ s⁻¹.

B2: 9D12 human monoclonal antibody (antibody, V domains shown)
VH: EVQLLESGGGLVQPGGSLRLSCAASGFTFSSSAMSWVRQAPGKGLEWVSSISGSGDTTYYADSVKGRFTISRDNSKNTLYLQMNSLRVEDAALYYCAANWGAAFDIWGQGTMVTVSS
VL: EIVLTQSPATLSLSPGERATLSCRASQSVSSYLAWYQQKPGQAPRLLIYDASNRATGIPARFSGSGSGTDFTLTISSLEPEDFAVYYCQQRSNWPRWTFGQGTKVEIK
notes: Purified from a hybridoma of a HuMAb Mouse; Human IgG (captured and detected with anti-human IgG) with a kappa light chain (VK L6); also called anti-IRTA-2 HuMAb 9D12
With B2, the binding result in assay [2] is recorded as “no binding (tested: 10 µg/ml)”. For the same molecule, the binding result in assay [3] is recorded as “no binding (tested: 10 µg/ml)”. Besides, in assay [1], the Kd came out at 2.1 nM, the koff was 6.9e-05 s⁻¹ and the kon turned out to be 34000 M⁻¹ s⁻¹. Besides, the binding result in assay [4] is “binds”.
